Data on 44 variants can be found in the supplement of paper PMC12783771.

± gives the standard deviation of the averaged measurements.

B1: library; numbered along this chain (parent)
chain: MNIQIGELAKRTACPVVTIRFYEQEGLLPPPGRSRGNFRLYGEEHVERLQFIRHCRSLDMPLSDVRTLLSYRKRPDQDCGEVNMLLDEHIRQVESRIGALLELKHHLVELREACSGARPAQSCGILQGLSDCVCDTRGTTAHPSD

The variants in data set [1] derive from B1. In words: sfGFP reporter fluorescence (15 h) (µM FITC); higher = higher leak. Particulars: library round: Round 0; ligand: none. Summed up: (§1)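 PCR-made linear PbrR templates (Echo-normalized to 5 nM) were expressed in BL21 Star (DE3) extract (PANOx-SP) with pPbrR-sfGFP reporter plasmid and 30 μg/mL GamS. Reactions were 1 μL, Echo-assembled, with 1 µM lead chloride, 30 µM zinc acetate or no metal, incubated 15 hr at 30 °C. Endpoint sfGFP fluorescence (485/528 nm, Synergy Neo2) was converted to µM FITC via standard curves in 50 mM sodium borate pH 8.5. Up to three biological replicates.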

Variants of B1 are the subject of data set [2]. As to the kind of experiment: sfGFP reporter fluorescence (15 h) (µM FITC); higher = stronger transcriptional activation. The settings on record: library round: Round 0. In a few lines:
as §1

For V16K, the sfGFP reporter fluorescence in data set [1] turned out to be 0.0641 ± 0.0021; in data set [2] (ligand: 1 µM Pb) it was 0.115 ± 0.0021; in data set [2] (ligand: 30 µM Zn), 1.93 ± 0.075.

For V16S, the figures for the sfGFP reporter fluorescence in data set [1], in data set [2] (ligand: 1 µM Pb) and in data set [2] (ligand: 30 µM Zn) were 0.06707 ± 0.00052, 0.1145 ± 0.00026 and 1.22 ± 0.028, respectively.

Turning to V16C, the sfGFP reporter fluorescence in data set [1] was found to be 0.0634; in data set [2] (ligand: 1 µM Pb), 0.0861 ± 0.0021; in data set [2] (ligand: 30 µM Zn) it was 0.341 ± 0.081.

Take V16D: the values for the sfGFP reporter fluorescence in data set [1], in data set [2] (ligand: 1 µM Pb) and in data set [2] (ligand: 30 µM Zn) were 0.0649 ± 0.0015, 0.0975 ± 0.0026 and 0.9703 ± 0.0039, respectively.

On to I125Q, for which the sfGFP reporter fluorescence in data set [1] is 0.0588 ± 0.00078; in data set [2] (ligand: 1 µM Pb) it was 0.0597 ± 0.0015; in data set [2] (ligand: 30 µM Zn), 0.055 ± 0.0021.

As for I125Y, the sfGFP reporter fluorescence in data set [1] stood at 0.059 ± 0.0021; in data set [2] (ligand: 1 µM Pb) it was 0.0588 ± 0.0023; in data set [2] (ligand: 30 µM Zn) it was 0.0552 ± 0.0029.

D131W: the figures for the sfGFP reporter fluorescence in data set [1], in data set [2] (ligand: 1 µM Pb) and in data set [2] (ligand: 30 µM Zn) were 0.05699 ± 0.00026, 0.07275 ± 0.00026 and 0.356 ± 0.046, respectively.

For V108A, the sfGFP reporter fluorescence is 0.06304 ± 0.00052 in data set [1], 0.0729 ± 0.0042 in data set [2] (ligand: 1 µM Pb) and 0.408 ± 0.11 in data set [2] (ligand: 30 µM Zn).

Consider V108F, for which the sfGFP reporter fluorescence in data set [1] was found to be 0.0561 ± 0.001; in data set [2] (ligand: 1 µM Pb), 0.0685 ± 0.001; in data set [2] (ligand: 30 µM Zn), 0.436 ± 0.028.

Consider V108L, for which the sfGFP reporter fluorescence came out at 0.0594 ± 0.001 in data set [1], 0.0696 ± 0.0026 in data set [2] (ligand: 1 µM Pb) and 0.616 ± 0.035 in data set [2] (ligand: 30 µM Zn).

On to L107Y, for which the results for the sfGFP reporter fluorescence in data set [1], in data set [2] (ligand: 1 µM Pb) and in data set [2] (ligand: 30 µM Zn) were 0.0603 ± 0.0013, 0.06762 ± 0.00026 and 0.209 ± 0.0091, respectively.

As to V82G, the sfGFP reporter fluorescence in data set [1] stood at 0.0555 ± 0.0023; in data set [2] (ligand: 1 µM Pb), 0.0564 ± 0.001; in data set [2] (ligand: 30 µM Zn), 0.0548 ± 0.0018.

As for M60L P61N L107C G128I, the values for the sfGFP reporter fluorescence in data set [1], in data set [2] (ligand: 1 µM Pb) and in data set [2] (ligand: 30 µM Zn) were 1.87 ± 0.42, 3.58 ± 0.081 and 4.97 ± 0.23, respectively.

Regarding D135R, the sfGFP reporter fluorescence in data set [1] worked out at 0.06267 ± 0.00052; in data set [2] (ligand: 1 µM Pb) it was 0.098 ± 0.0086; in data set [2] (ligand: 30 µM Zn), 0.909 ± 0.043.

In the case of D135N, the sfGFP reporter fluorescence in data set [1] was determined as 0.0588 ± 0.0034; in data set [2] (ligand: 1 µM Pb), 0.0847 ± 0.0078; in data set [2] (ligand: 30 µM Zn), 1.18 ± 0.32.

With D135P, the values for the sfGFP reporter fluorescence in data set [1], in data set [2] (ligand: 1 µM Pb) and in data set [2] (ligand: 30 µM Zn) were 0.0557 ± 0.0036, 0.0826 ± 0.0049 and 0.672 ± 0.09, respectively.

In the case of R111K, the values for the sfGFP reporter fluorescence in data set [1], in data set [2] (ligand: 1 µM Pb) and in data set [2] (ligand: 30 µM Zn) were 0.0575 ± 0.0015, 0.06194 ± 0.00052 and 0.149 ± 0.02, respectively.

Take R111S: the sfGFP reporter fluorescence in data set [1] came out at 0.06102 ± 0.00026; in data set [2] (ligand: 1 µM Pb), 0.0951 ± 0.0023; in data set [2] (ligand: 30 µM Zn) it was 1.14 ± 0.11.

In the case of R111A, the sfGFP reporter fluorescence in data set [1] is 0.0634 ± 0.0026; in data set [2] (ligand: 1 µM Pb) it was 0.09932 ± 0.00052; in data set [2] (ligand: 30 µM Zn), 1.17 ± 0.021.

Consider R111G, for which the sfGFP reporter fluorescence in data set [1] turned out to be 0.0535; in data set [2] (ligand: 1 µM Pb), 0.0623 ± 0.001; in data set [2] (ligand: 30 µM Zn) it was 0.343 ± 0.0083.

On to R111P, for which the sfGFP reporter fluorescence was 0.0577 ± 0.0018 in data set [1], 0.05846 ± 0.00026 in data set [2] (ligand: 1 µM Pb) and 0.0542 ± 0.0015 in data set [2] (ligand: 30 µM Zn).

As to N37A, the sfGFP reporter fluorescence in data set [1] is 0.0634 ± 0.001; in data set [2] (ligand: 1 µM Pb), 0.0729 ± 0.0042; in data set [2] (ligand: 30 µM Zn), 0.481 ± 0.007.

Turning to P15I, the figures for the sfGFP reporter fluorescence in data set [1], in data set [2] (ligand: 1 µM Pb) and in data set [2] (ligand: 30 µM Zn) were 0.06047 ± 0.00052, 0.0612 ± 0.0015 and 0.288 ± 0.026, respectively.

As for P15L, the sfGFP reporter fluorescence in data set [1] stood at 0.0667; in data set [2] (ligand: 1 µM Pb), 0.0938 ± 0.0036; in data set [2] (ligand: 30 µM Zn), 1.06 ± 0.078.

Consider P30S, for which the sfGFP reporter fluorescence was 0.06249 ± 0.00026 in data set [1], 0.0801 ± 0.0039 in data set [2] (ligand: 1 µM Pb) and 0.651 ± 0.14 in data set [2] (ligand: 30 µM Zn).

Take P30F: the sfGFP reporter fluorescence amounted to 0.0603 ± 0.0018 in data set [1], 0.0759 ± 0.001 in data set [2] (ligand: 1 µM Pb) and 0.489 ± 0.015 in data set [2] (ligand: 30 µM Zn).

Regarding P30Y, the sfGFP reporter fluorescence in data set [1] was found to be 0.0616 ± 0.001; in data set [2] (ligand: 1 µM Pb), 0.0771 ± 0.0049; in data set [2] (ligand: 30 µM Zn) it was 0.612 ± 0.013.

As to P30N, the sfGFP reporter fluorescence in data set [1] stood at 0.0605 ± 0.0031; in data set [2] (ligand: 1 µM Pb) it was 0.0753 ± 0.0049; in data set [2] (ligand: 30 µM Zn), 0.628 ± 0.07.

Take P30L: the results for the sfGFP reporter fluorescence in data set [1], in data set [2] (ligand: 1 µM Pb) and in data set [2] (ligand: 30 µM Zn) were 0.0614 ± 0.00078, 0.0894 ± 0.0031 and 0.901 ± 0.0029, respectively.

As to I97H, the sfGFP reporter fluorescence in data set [1] stood at 0.0564 ± 0.0062; in data set [2] (ligand: 1 µM Pb), 0.0596 ± 0.0034; in data set [2] (ligand: 30 µM Zn), 0.263 ± 0.0018.

For the variant I97Q, the sfGFP reporter fluorescence in data set [1] is 0.057 ± 0.0029; in data set [2] (ligand: 1 µM Pb) it was 0.057 ± 0.0034; in data set [2] (ligand: 30 µM Zn) it was 0.287 ± 0.0088.

For S95A, the sfGFP reporter fluorescence in data set [1] was determined as 0.0625 ± 0.0013; in data set [2] (ligand: 1 µM Pb) it was 0.0759 ± 0.0062; in data set [2] (ligand: 30 µM Zn), 0.797 ± 0.063.

In the case of K104V L107C G128M, the sfGFP reporter fluorescence in data set [1] was determined as 0.701 ± 0.023; in data set [2] (ligand: 1 µM Pb) it was 3.1 ± 0.15; in data set [2] (ligand: 30 µM Zn), 4.118 ± 0.038.

On to M60L D64K L107C G128I, for which the figures for the sfGFP reporter fluorescence in data set [1], in data set [2] (ligand: 1 µM Pb) and in data set [2] (ligand: 30 µM Zn) were 5.03 ± 0.22, 4.57 ± 0.23 and 3.85 ± 0.9, respectively.

Consider M60L D64K L107C G128M, for which the sfGFP reporter fluorescence in data set [1] came to 5.61 ± 0.24; in data set [2] (ligand: 1 µM Pb), 4.82 ± 0.34; in data set [2] (ligand: 30 µM Zn), 4.67 ± 0.83.

In the case of L110Y, the sfGFP reporter fluorescence in data set [1] is 0.0581 ± 0.00078; in data set [2] (ligand: 1 µM Pb), 0.0597; in data set [2] (ligand: 30 µM Zn), 0.0656 ± 0.001.

With L85N, the results for the sfGFP reporter fluorescence in data set [1], in data set [2] (ligand: 1 µM Pb) and in data set [2] (ligand: 30 µM Zn) were 0.0564 ± 0.0021, 0.0575 ± 0.0015 and 0.0612 ± 0.0015, respectively.

Consider L129D, for which the values for the sfGFP reporter fluorescence in data set [1], in data set [2] (ligand: 1 µM Pb) and in data set [2] (ligand: 30 µM Zn) were 0.0588 ± 0.0013, 0.05992 ± 0.00026 and 0.055 ± 0.001, respectively.

Take L129A: the results for the sfGFP reporter fluorescence in data set [1], in data set [2] (ligand: 1 µM Pb) and in data set [2] (ligand: 30 µM Zn) were 0.0572 ± 0.0021, 0.0561 ± 0.001 and 0.0574 ± 0.0018, respectively.

For the variant L129N, the sfGFP reporter fluorescence in data set [1] stood at 0.0586 ± 0.0015; in data set [2] (ligand: 1 µM Pb), 0.05827 ± 0.00052; in data set [2] (ligand: 30 µM Zn) it was 0.0535 ± 0.0036.

For Q77A, the figures for the sfGFP reporter fluorescence in data set [1], in data set [2] (ligand: 1 µM Pb) and in data set [2] (ligand: 30 µM Zn) were 0.0698 ± 0.0013, 0.128 ± 0.045 and 1.48 ± 0.31, respectively.

Consider N83Y, for which the values for the sfGFP reporter fluorescence in data set [1], in data set [2] (ligand: 1 µM Pb) and in data set [2] (ligand: 30 µM Zn) were 0.0594 ± 0.0015, 0.0762 ± 0.001 and 0.0645 ± 0.0015, respectively.

Consider N83R, for which the results for the sfGFP reporter fluorescence in data set [1], in data set [2] (ligand: 1 µM Pb) and in data set [2] (ligand: 30 µM Zn) were 0.0625 ± 0.00078, 0.0775 ± 0.0065 and 0.0883 ± 0.0021, respectively.

On to N83A, for which the sfGFP reporter fluorescence stood at 0.061 ± 0.0013 in data set [1], 0.0867 ± 0.0065 in data set [2] (ligand: 1 µM Pb) and 0.1411 ± 0.001 in data set [2] (ligand: 30 µM Zn).
